Results as given in paper PMC7729563, “Phospho-Mutant Activity Assays Provide Evidence for the Negative Regulation of Transcriptional Regulator PRE1 by Phosphorylation” (International Journal of Molecular Sciences, 2020).

B1: AD-PRE1 (PACLOBUTRAZOL-RESISTANT-1 fused to GAL4AD) [Arabidopsis thaliana] / BD-IBH1 (ILI1 BINDING bHLH PROTEIN1 fused to GAL4BD) [Arabidopsis thaliana] (parent complex)
chain 1: MSNRRSRQSSSAPRISDNQMIDLVSKLRQILPEIGQRRRSDKASASKVLQETCNYIRNLNREVDNLSERLSQLLESVDEDSPEAAVIRSLLM
chain 2: MASADKLINTDVPEKDVFAFHFLQSLSNLRKQNPFDTPDQKNYRVRKIKKAAYVSMARAAGGSSRLWSRALLRRADKDDNKIVRFSRRKWKISSKRRRSNQRAPVVEEAAERLRNLVPGGGGMETSKLMEETAHYIKCLSMQVKVMQCLVDGLSPK

Variants of: B1
Experiment: pull-down, band quantification normalized to input; parent: 0.32; read off a plot

| response [Pull-down/Input] | Variant |
| --- | --- |
| ~0.13 | chain 1 MSNRRSRQSSSAPRISDNQMIDLVSKLRQILPEIGQRRRSDKASASKVLQETCNYIRNLNREVDNLEERLSQLLESVDEDSPEAAVIRSLLM [chain 1 S67E] |
| ~0.23 | chain 1 MSNRRSRQSSSAPRISDNQMIDLVSKLRQILPEIGQRRRSDKASASKVLQETCNYIRNLNREVDNLAERLSQLLESVDEDSPEAAVIRSLLM [chain 1 S67A] |

Variants of: B1
Experiment: yeast two-hybrid, quantitative β-galactosidase assay; parent: 3.9; read off a plot

| response | Variant |
| --- | --- |
| ~2.3 β-gal units | chain 1 MSNRRSRQSSSAPRISDNQMIDLVSKLRQILPEIGQRRRSDKASASKVLQETCNYIRNLNREVDNLEERLSQLLESVDEDSPEAAVIRSLLM [chain 1 S67E] |
| ~3.6 β-gal units | chain 1 MSNRRSRQSSSAPRISDNQMIDLVSKLRQILPEIGQRRRSDKASASKVLQETCNYIRNLNREVDNLAERLSQLLESVDEDSPEAAVIRSLLM [chain 1 S67A] |

Variants of: B1
Experiment: Ratiometric-Bimolecular Fluorescence Complementation (rBiFC) in tobacco; n = 50 images; parent: 0.42; read off a plot

| response [YFP/RFP] | Variant |
| --- | --- |
| ~0.16 | chain 1 MSNRRSRQSSSAPRISDNQMIDLVSKLRQILPEIGQRRRSDKASASKVLQETCNYIRNLNREVDNLEERLSQLLESVDEDSPEAAVIRSLLM [chain 1 S67E] |
